Reference: paper PMC6286129, “CryoEM structures of open dimers of gyrase A in complex with DNA illuminate mechanism of strand passage” (eLife, 2018)

What was measured:
[1] = target: the molecule itself; assay: cryo-EM structure; Tetrahedral complex: GyrA-ΔCTD mixed with GyrB, 44 bp DNA, ciprofloxacin and novobiocin; purified on a glycerol/glutaraldehyde gradient (GraFix)
[2] = target: the molecule itself; assay: cryo-EM structure; Dihedral complex: GyrA-ΔCTD mixed with 44 bp DNA and ciprofloxacin, no GyrB; purified on a glycerol/glutaraldehyde gradient (GraFix); also a low resolution reconstruction without glutaraldehyde or antibiotics

B1: Streptococcus pneumoniae gyrase A subunit with truncated C-terminal domain (GyrA-ΔCTD, residues 1–487) (domain or fragment, UniProt P72524 1-487, looked up)
chain: MQDKNLVNVNLTKEMKASFIDYAMSVIVARALPDVRDGLKPVHRRILYGMNELGVTPDKPHKKSARITGDVMGKYHPHGDSSIYEAMVRMAQWWSYRYMLVDGHGNFGSMDGDSAAAQRYTEARMSKIALEMLRDINKNTVDFVDNYDANEREPLVLPARFPNLLVNGATGIAVGMATNIPPHNLGETIDAVKLVMDNPEVTTKDLMEVLPGPDFPTGALVMGKSGIHKAYETGKGSIVLRSRTEIETTKTGRERIVVTEFPYMVNKTKVHEHIVRLVQEKRIEGITAVRDESNREGVRFVIEVKRDASANVILNNLFKMTQMQTNFGFNMLAIQNGIPKILSLRQILDAYIEHQKEVVVRRTRFDKEKAEARAHILEGLLIALDHIDEVIRIIRASETDAEAQAELMSKFKLSERQSQAILDMRLRRLTGLERDKIQSEYDDLLALIADLADILAKPERVSQIIKDELDEVKRKFSDKRRTELMIG
notes: DNA gyrase subunit A, Streptococcus pneumoniae, gene cloned from the ATCC genome 700669DQ; residues 1-487 (C-terminal domain removed); The vector pMCSG7 adds 24 amino acids at the N-terminus, with a six amino acid His-tag and a TEV cleavage site; It forms open dimers that assemble around a 44 bp DNA into oligomers of four dimers (Dihedral complex) or six dimers (Tetrahedral complex); also called …
[1]
  stoichiometry N: 12 monomers
[2]
  stoichiometry N: 8 monomers
